Experimental data published in patent US20240270846A1 (published 2024).

molecular target: T1, CD3 epsilon homodimer protein (UniProt P07766 23-126); experiment: SPR Biacore T200, CD3 epsilon homodimer on CM4 chip, antibody as analyte;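 note: Amine-coupled CD3 epsilon homodimer, run at 25 °C in HBS-EP+ buffer, ratio is bound amount of each single-residue H chain variant over that of the parent antibody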
T1 construct: Immobilized on Sensor chip CM4 by amine coupling; construct not described; also called CD3 (CD3 epsilon)
T1 sequence (P07766 23-126): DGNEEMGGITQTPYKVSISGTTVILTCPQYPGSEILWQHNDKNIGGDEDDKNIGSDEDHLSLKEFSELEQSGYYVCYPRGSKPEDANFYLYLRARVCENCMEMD

Binder	ratio of amounts bound (Y/X vs CE115HA000)
CE115HA000 Y100aF one-arm antibody (antibody, human IgG1, kappa, L234A L235A, N297A, name in Kabat numbering, one-arm antibody (one Fab)) heavy: QVQLVESGGGVVQPGRSLRLSCAASGFTFSNAWMHWVRQAPGKGLEWVAQIKAKSNNYATYYAESVKGRFTISRDDSKNSLYLQMNSLKTEDTAVYYCRYVHYGAYFGVDAWGQGTTVTVSSASTKGPSVFPLAPSSKSTSGGTAALGCLVKDYFPEPVTVSWNSGALTSGVHTFPAVLQSSGLYSLSSVVTVPSSSLGTQTYICNVNHKPSNTKVDKKVEPKSCDKTHTCPPCPAPEAAGGPSVFLFPPKPKDTLMISRTPEVTCVVVDVSHEDPEVKFNWYVDGVEVHNAKTKPREEQYASTYRVVSVLTVLHQDWLNGKEYKCKVSNKALPAPIEKTISKAKGQPREPQVYTLPPSRCELTKNQVSLSCAVKGFYPSDIAVEWESNGQPENNYKTTPPVLDSDGSFFLVSKLTVDKSRWQQGNVFSCSVMHEALHNHYTQKSLSLSPDYKDDDDK EPKSSDKTHTCPPCPAPELLGGPSVFLFPPKPKDTLMISRTPEVTCVVVDVSHEDPEVKFNWYVDGVEVHNAKTKPREEQYNSTYRVVSVLTVLHQDWLNGKEYKCKVSNKALPAPIEKTISKAKGQPREPQVCTLPPSRDELTKNQVSLWCLVKGFYPSDIAVEWESNGQPENNYKTTPPVLDSDGSFFLYSKLTVDKSRWQQGNVFSCSVMHEALHNRYTQKSLSLSP light: DIVMTQSPLSLPVTPGEPASISCRSSQSLVHSNRNTYLHWYQQKPGQAPRLLIYKVSNRFSGVPDRFSGSGSGTDFTLKISRVEAEDVGVYYCGQGTQVPYTFGQGTKLEIKRTVAAPSVFIFPPSDEQLKSGTASVVCLLNNFYPREAKVQWKVDNALQSGNSQESVTEQDSKDSTYSLSSTLTLSKADYEKHKVYACEVTHQGLSSPVTKSFNRGEC	0.87
CE115HA000 Y100aS one-arm antibody (antibody, human IgG1, kappa, L234A L235A, N297A, name in Kabat numbering, one-arm antibody (one Fab)) heavy: QVQLVESGGGVVQPGRSLRLSCAASGFTFSNAWMHWVRQAPGKGLEWVAQIKAKSNNYATYYAESVKGRFTISRDDSKNSLYLQMNSLKTEDTAVYYCRYVHYGAYSGVDAWGQGTTVTVSSASTKGPSVFPLAPSSKSTSGGTAALGCLVKDYFPEPVTVSWNSGALTSGVHTFPAVLQSSGLYSLSSVVTVPSSSLGTQTYICNVNHKPSNTKVDKKVEPKSCDKTHTCPPCPAPEAAGGPSVFLFPPKPKDTLMISRTPEVTCVVVDVSHEDPEVKFNWYVDGVEVHNAKTKPREEQYASTYRVVSVLTVLHQDWLNGKEYKCKVSNKALPAPIEKTISKAKGQPREPQVYTLPPSRCELTKNQVSLSCAVKGFYPSDIAVEWESNGQPENNYKTTPPVLDSDGSFFLVSKLTVDKSRWQQGNVFSCSVMHEALHNHYTQKSLSLSPDYKDDDDK EPKSSDKTHTCPPCPAPELLGGPSVFLFPPKPKDTLMISRTPEVTCVVVDVSHEDPEVKFNWYVDGVEVHNAKTKPREEQYNSTYRVVSVLTVLHQDWLNGKEYKCKVSNKALPAPIEKTISKAKGQPREPQVCTLPPSRDELTKNQVSLWCLVKGFYPSDIAVEWESNGQPENNYKTTPPVLDSDGSFFLYSKLTVDKSRWQQGNVFSCSVMHEALHNRYTQKSLSLSP light: DIVMTQSPLSLPVTPGEPASISCRSSQSLVHSNRNTYLHWYQQKPGQAPRLLIYKVSNRFSGVPDRFSGSGSGTDFTLKISRVEAEDVGVYYCGQGTQVPYTFGQGTKLEIKRTVAAPSVFIFPPSDEQLKSGTASVVCLLNNFYPREAKVQWKVDNALQSGNSQESVTEQDSKDSTYSLSSTLTLSKADYEKHKVYACEVTHQGLSSPVTKSFNRGEC	0.64
CE115HA000 Y100aG one-arm antibody (antibody, human IgG1, kappa, L234A L235A, N297A, name in Kabat numbering, one-arm antibody (one Fab)) heavy: QVQLVESGGGVVQPGRSLRLSCAASGFTFSNAWMHWVRQAPGKGLEWVAQIKAKSNNYATYYAESVKGRFTISRDDSKNSLYLQMNSLKTEDTAVYYCRYVHYGAYGGVDAWGQGTTVTVSSASTKGPSVFPLAPSSKSTSGGTAALGCLVKDYFPEPVTVSWNSGALTSGVHTFPAVLQSSGLYSLSSVVTVPSSSLGTQTYICNVNHKPSNTKVDKKVEPKSCDKTHTCPPCPAPEAAGGPSVFLFPPKPKDTLMISRTPEVTCVVVDVSHEDPEVKFNWYVDGVEVHNAKTKPREEQYASTYRVVSVLTVLHQDWLNGKEYKCKVSNKALPAPIEKTISKAKGQPREPQVYTLPPSRCELTKNQVSLSCAVKGFYPSDIAVEWESNGQPENNYKTTPPVLDSDGSFFLVSKLTVDKSRWQQGNVFSCSVMHEALHNHYTQKSLSLSPDYKDDDDK EPKSSDKTHTCPPCPAPELLGGPSVFLFPPKPKDTLMISRTPEVTCVVVDVSHEDPEVKFNWYVDGVEVHNAKTKPREEQYNSTYRVVSVLTVLHQDWLNGKEYKCKVSNKALPAPIEKTISKAKGQPREPQVCTLPPSRDELTKNQVSLWCLVKGFYPSDIAVEWESNGQPENNYKTTPPVLDSDGSFFLYSKLTVDKSRWQQGNVFSCSVMHEALHNRYTQKSLSLSP light: DIVMTQSPLSLPVTPGEPASISCRSSQSLVHSNRNTYLHWYQQKPGQAPRLLIYKVSNRFSGVPDRFSGSGSGTDFTLKISRVEAEDVGVYYCGQGTQVPYTFGQGTKLEIKRTVAAPSVFIFPPSDEQLKSGTASVVCLLNNFYPREAKVQWKVDNALQSGNSQESVTEQDSKDSTYSLSSTLTLSKADYEKHKVYACEVTHQGLSSPVTKSFNRGEC	1.23
CE115HA000 Y100aK one-arm antibody (antibody, human IgG1, kappa, L234A L235A, N297A, name in Kabat numbering, one-arm antibody (one Fab)) heavy: QVQLVESGGGVVQPGRSLRLSCAASGFTFSNAWMHWVRQAPGKGLEWVAQIKAKSNNYATYYAESVKGRFTISRDDSKNSLYLQMNSLKTEDTAVYYCRYVHYGAYKGVDAWGQGTTVTVSSASTKGPSVFPLAPSSKSTSGGTAALGCLVKDYFPEPVTVSWNSGALTSGVHTFPAVLQSSGLYSLSSVVTVPSSSLGTQTYICNVNHKPSNTKVDKKVEPKSCDKTHTCPPCPAPEAAGGPSVFLFPPKPKDTLMISRTPEVTCVVVDVSHEDPEVKFNWYVDGVEVHNAKTKPREEQYASTYRVVSVLTVLHQDWLNGKEYKCKVSNKALPAPIEKTISKAKGQPREPQVYTLPPSRCELTKNQVSLSCAVKGFYPSDIAVEWESNGQPENNYKTTPPVLDSDGSFFLVSKLTVDKSRWQQGNVFSCSVMHEALHNHYTQKSLSLSPDYKDDDDK EPKSSDKTHTCPPCPAPELLGGPSVFLFPPKPKDTLMISRTPEVTCVVVDVSHEDPEVKFNWYVDGVEVHNAKTKPREEQYNSTYRVVSVLTVLHQDWLNGKEYKCKVSNKALPAPIEKTISKAKGQPREPQVCTLPPSRDELTKNQVSLWCLVKGFYPSDIAVEWESNGQPENNYKTTPPVLDSDGSFFLYSKLTVDKSRWQQGNVFSCSVMHEALHNRYTQKSLSLSP light: DIVMTQSPLSLPVTPGEPASISCRSSQSLVHSNRNTYLHWYQQKPGQAPRLLIYKVSNRFSGVPDRFSGSGSGTDFTLKISRVEAEDVGVYYCGQGTQVPYTFGQGTKLEIKRTVAAPSVFIFPPSDEQLKSGTASVVCLLNNFYPREAKVQWKVDNALQSGNSQESVTEQDSKDSTYSLSSTLTLSKADYEKHKVYACEVTHQGLSSPVTKSFNRGEC	0.9
CE115HA000 Y100aQ one-arm antibody (antibody, human IgG1, kappa, L234A L235A, N297A, name in Kabat numbering, one-arm antibody (one Fab)) heavy: QVQLVESGGGVVQPGRSLRLSCAASGFTFSNAWMHWVRQAPGKGLEWVAQIKAKSNNYATYYAESVKGRFTISRDDSKNSLYLQMNSLKTEDTAVYYCRYVHYGAYQGVDAWGQGTTVTVSSASTKGPSVFPLAPSSKSTSGGTAALGCLVKDYFPEPVTVSWNSGALTSGVHTFPAVLQSSGLYSLSSVVTVPSSSLGTQTYICNVNHKPSNTKVDKKVEPKSCDKTHTCPPCPAPEAAGGPSVFLFPPKPKDTLMISRTPEVTCVVVDVSHEDPEVKFNWYVDGVEVHNAKTKPREEQYASTYRVVSVLTVLHQDWLNGKEYKCKVSNKALPAPIEKTISKAKGQPREPQVYTLPPSRCELTKNQVSLSCAVKGFYPSDIAVEWESNGQPENNYKTTPPVLDSDGSFFLVSKLTVDKSRWQQGNVFSCSVMHEALHNHYTQKSLSLSPDYKDDDDK EPKSSDKTHTCPPCPAPELLGGPSVFLFPPKPKDTLMISRTPEVTCVVVDVSHEDPEVKFNWYVDGVEVHNAKTKPREEQYNSTYRVVSVLTVLHQDWLNGKEYKCKVSNKALPAPIEKTISKAKGQPREPQVCTLPPSRDELTKNQVSLWCLVKGFYPSDIAVEWESNGQPENNYKTTPPVLDSDGSFFLYSKLTVDKSRWQQGNVFSCSVMHEALHNRYTQKSLSLSP light: DIVMTQSPLSLPVTPGEPASISCRSSQSLVHSNRNTYLHWYQQKPGQAPRLLIYKVSNRFSGVPDRFSGSGSGTDFTLKISRVEAEDVGVYYCGQGTQVPYTFGQGTKLEIKRTVAAPSVFIFPPSDEQLKSGTASVVCLLNNFYPREAKVQWKVDNALQSGNSQESVTEQDSKDSTYSLSSTLTLSKADYEKHKVYACEVTHQGLSSPVTKSFNRGEC	0.56
CE115HA000 Y100aL one-arm antibody (antibody, human IgG1, kappa, L234A L235A, N297A, name in Kabat numbering, one-arm antibody (one Fab)) heavy: QVQLVESGGGVVQPGRSLRLSCAASGFTFSNAWMHWVRQAPGKGLEWVAQIKAKSNNYATYYAESVKGRFTISRDDSKNSLYLQMNSLKTEDTAVYYCRYVHYGAYLGVDAWGQGTTVTVSSASTKGPSVFPLAPSSKSTSGGTAALGCLVKDYFPEPVTVSWNSGALTSGVHTFPAVLQSSGLYSLSSVVTVPSSSLGTQTYICNVNHKPSNTKVDKKVEPKSCDKTHTCPPCPAPEAAGGPSVFLFPPKPKDTLMISRTPEVTCVVVDVSHEDPEVKFNWYVDGVEVHNAKTKPREEQYASTYRVVSVLTVLHQDWLNGKEYKCKVSNKALPAPIEKTISKAKGQPREPQVYTLPPSRCELTKNQVSLSCAVKGFYPSDIAVEWESNGQPENNYKTTPPVLDSDGSFFLVSKLTVDKSRWQQGNVFSCSVMHEALHNHYTQKSLSLSPDYKDDDDK EPKSSDKTHTCPPCPAPELLGGPSVFLFPPKPKDTLMISRTPEVTCVVVDVSHEDPEVKFNWYVDGVEVHNAKTKPREEQYNSTYRVVSVLTVLHQDWLNGKEYKCKVSNKALPAPIEKTISKAKGQPREPQVCTLPPSRDELTKNQVSLWCLVKGFYPSDIAVEWESNGQPENNYKTTPPVLDSDGSFFLYSKLTVDKSRWQQGNVFSCSVMHEALHNRYTQKSLSLSP light: DIVMTQSPLSLPVTPGEPASISCRSSQSLVHSNRNTYLHWYQQKPGQAPRLLIYKVSNRFSGVPDRFSGSGSGTDFTLKISRVEAEDVGVYYCGQGTQVPYTFGQGTKLEIKRTVAAPSVFIFPPSDEQLKSGTASVVCLLNNFYPREAKVQWKVDNALQSGNSQESVTEQDSKDSTYSLSSTLTLSKADYEKHKVYACEVTHQGLSSPVTKSFNRGEC	0.48
